Data from the supplement of paper PMC9732359.
± gives the uncertainty stated by the source.

Experiment: protein stability index of a GFP-peptide fusion (yeast GPS) (PSI 1-4); higher = more stable; sorted into four equal gates, so the index is relative within each strain
Settings: pdr5∆
Outline: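 Tiled 17-residue peptides from yeast proteins were fused downstream of GFP on a plasmid that also expresses Cherry, and the pooled library was carried in yeast. Mid-log cultures grown in leucine-free medium were sorted into four equal gates by GFP/Cherry fluorescence ratio. Plasmids from each gate were PCR-amplified and Illumina-sequenced, and reads were assigned to strains by barcodes. Each peptide's protein stability index is the sum, over gates, of the gate's read frequency multiplied by its gate number.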

Sequence	protein stability index
ARILGTRALQISMNAPV [RPO26]	1.45 ± 0.24
ARLEPGTAIGAIGAQSI [RPO31]	1.82 ± 0.079

Same assay, conditions: san1∆

Sequence	protein stability index
AGSAALKIIHDTFRWVG [RPO31]	1.19 ± 0.17
AGSGSTFIYGYCDKNFR [PRE3]	1.51 ± 0.099
AGVPRQAINLGQVVLTP [RPL14A]	1.58 ± 0.23
AGVSHGTLGEIFIRCNN [SMX3]	2.91 ± 0.094
AHDYNNDQDMFTIVSLV [YML103C/NUP188]	3.23 ± 0.12
AHEISQGVYGAVYETLI [BRR2]	3.16 ± 0.061
AHFWKPVLNLDKLWTLI [RPL28]	2.09 ± 0.071
AHKGQIVLIKGISSAYI [SNU114]	1.89 ± 0.069
AHMGVLLVLLQDVIKVL [SWP82]	1.45 ± 0.1
AHNPELERYVKRCMDDL [RPO31]	3.41 ± 0.037
AIATTVIAHLTVEALDF [RET1]	2.71 ± 0.076
AIEPETFTQLVSSSLYE [PUP3]	2.75 ± 0.063
AIIDKNTGLTFKKNLQV [PRE4]	2.79 ± 0.11
AIKWDGSSGGVIRMVVL [PRE3]	2.71 ± 0.1
AIKYGYEDSGSTYKHDR [SRB4]	3.43 ± 0.14
AIKYRPTSVKLLKTTVP [POP3]	2.31 ± 0.057
AIVCYILFELYKIKGRN [SRP72]	2.69 ± 0.059
AKLPGHKSLIRSISWAP [YGL100W/SEH1]	2.2 ± 0.11
AKMNAKTDFAKIINKPN [RPC82]	1.58 ± 0.17
AKNSIIDSSNLPLQAQQ [SWI1]	2.74 ± 0.099
AKSLLKLQLGQLYESGN [COR1]	2.99 ± 0.1
AKVVVTTSRFSKQVTDY [FAS2]	3.12 ± 0.055
AKYETSILEHSGIRLIE [FAS2]	3.09 ± 0.051
ALAGGKKSKKKWSKKSM [RPS25A]	3.23 ± 0.16
ALAGSEINWRHASFLCS [FAS1]	1.43 ± 0.092

Sequence	protein stability index
ALAYAGTGNNSAVKRLL [RPN2]	2.28 ± 0.14
ALEEGLNEEAVIFLSSL [YJL039C/NUP192]	3 ± 0.07
ALETENMEIRNLRLKIL [GRR1]	2.82 ± 0.052
ALGIKVTNPKGRLALEA [RPL32]	2.87 ± 0.23
ALIENKKAKLVLIANDV [RPL8A]	2.56 ± 0.12
ALKRSYGIFGEGVEYSF [POP8]	2.46 ± 0.097
ALKTSIQHVGMINGRKL [FAS1]	3.25 ± 0.067
ALLQRLKTNGKQNNKDF [MTW1]	3.04 ± 0.13
ALMKEKDIRSTLASLIR [RPC82]	2.43 ± 0.24
ALQDKEITSVLSNLHES [SNF12]	2.94 ± 0.064
ALQQQQQQQQNQQQQNQ [SWI1]	2.75 ± 0.047
ALRPSDIFGANAASGSN [YOR098C/NUP1]	2.22 ± 0.062
ALSKFLTHPKYLNSRII [YML103C/NUP188]	1.38 ± 0.093
ALSMGKSSAFVIDIGAS [ARP7]	1.62 ± 0.092
ALVKPETQFKLSRPYKA [CDC53]	2.59 ± 0.059
AMDLAQMLIQGVWDVDN [BRR2]	2.18 ± 0.058
AMDRAHRIGQKKQVHVY [ISW2]	2.84 ± 0.085
AMEKYLLSKSKIGEEDY [MTW1]	2.6 ± 0.1
AMFAALQQKQQQRFQAL [SWI1]	1.3 ± 0.12
AMLAAQDVAAKCKEVGI [RPS14B]	1.99 ± 0.073
AMNDACYEKVLESINEG [BRR2]	2.91 ± 0.095
ANARDFGEWAGMTKSNI [BRR2]	1.55 ± 0.12
ANGTFMDFGVDPSMDPE [RPN10]	2.65 ± 0.12
ANIQLDFPELKPYKQVK [FAS2]	2.97 ± 0.11
ANKEKKKAEKAARKAEK [RPL24A]	3.38 ± 0.036

Sequence	protein stability index
ANKLSKSHSTVSSSSRH [ISW2]	2.71 ± 0.056
ANLVNKESDLLEETRTT [BRN1]	3.31 ± 0.098
ANNASQITPTVPHSHPS [SNF12]	2.82 ± 0.052
ANPVVATDPVAAKPDNL [SWP82]	3.23 ± 0.085
ANTPSIPTNPVDNENNK [SWI3]	2.68 ± 0.053
ANTPVLRKSELEYYAML [RPL30]	2.23 ± 0.095
ANVQRLKEYQSKIIVFP [RPL13A]	3.05 ± 0.092
APAYAWSHNGPFETFDH [CYT1]	1.75 ± 0.16
APDSEYLCFILSTRAGG [SNF2]	2.01 ± 0.063
APIADDNHSGDATANAT [DSN1]	3.27 ± 0.083
APIPIREDIDDPLAKVN [BRR2]	2.55 ± 0.09
APMYILDEVDAALDLSH [SMC2]	2.92 ± 0.23
APSIIFMDEIDSIGSTR [RPT6]	2.83 ± 0.058
AQAAQAAQAQAQAQAQA [GAL11]	2.71 ± 0.034
AQADKQDISSSTRVEFE [FAS2]	3.08 ± 0.06
AQNQGGQVSMSQFNGSG [PGD1]	2.93 ± 0.081
AQQLRNQQQQQQQQQQQ [GAL11]	2.92 ± 0.094
AQQQQLSNYPQQIQEQV [YGR119C/NUP57]	2.71 ± 0.046
AQTEIKLFNKWSFEEVE [RPS5]	3.51 ± 0.09
ARAVQDNGESAFRTLRL [RPL13A]	1.57 ± 0.098
ARFRSIHILKVAEIEKT [RPL20A]	1.14 ± 0.088
ARIHAQNYLKTYNEDIP [PRE9]	2.75 ± 0.085
ARLEPGTAIGAIGAQSI [RPO31]	1.49 ± 0.14

Same assay, conditions: ubr1∆

Sequence	protein stability index
AGSAALKIIHDTFRWVG [RPO31]	3.24 ± 0.063
AGSGSTFIYGYCDKNFR [PRE3]	1.49 ± 0.059
AGVPRQAINLGQVVLTP [RPL14A]	2.04 ± 0.21
AGVSHGTLGEIFIRCNN [SMX3]	3.29 ± 0.08
AHDYNNDQDMFTIVSLV [YML103C/NUP188]	2.95 ± 0.13
AHEISQGVYGAVYETLI [BRR2]	3.37 ± 0.082
AHFWKPVLNLDKLWTLI [RPL28]	1.65 ± 0.032
AHKGQIVLIKGISSAYI [SNU114]	1.86 ± 0.053
AHMGVLLVLLQDVIKVL [SWP82]	1.51 ± 0.057
AHNPELERYVKRCMDDL [RPO31]	3.35 ± 0.04
AIATTVIAHLTVEALDF [RET1]	2.37 ± 0.053
AIEPETFTQLVSSSLYE [PUP3]	2.54 ± 0.043
AIFNNEFDSDDDDISDD [RPN4]	3.19 ± 0.21
AIIDKNTGLTFKKNLQV [PRE4]	3.35 ± 0.082
AIKWDGSSGGVIRMVVL [PRE3]	1.75 ± 0.049
AIKYGYEDSGSTYKHDR [SRB4]	3.15 ± 0.14
AIKYRPTSVKLLKTTVP [POP3]	2.14 ± 0.033
AIVCYILFELYKIKGRN [SRP72]	2.15 ± 0.054
AKAKAVTSKVRNAEFKV [YMR153W/NUP53]	1.3 ± 0.13
AKLPGHKSLIRSISWAP [YGL100W/SEH1]	2.54 ± 0.055
AKMNAKTDFAKIINKPN [RPC82]	1.62 ± 0.069
AKNSIIDSSNLPLQAQQ [SWI1]	2.78 ± 0.042
AKRLIHGTSTSAEDEEN [CDC53]	3.57 ± 0.19
AKSLLKLQLGQLYESGN [COR1]	3.01 ± 0.087
AKVVVTTSRFSKQVTDY [FAS2]	3.15 ± 0.058
AKYETSILEHSGIRLIE [FAS2]	3.37 ± 0.052

Sequence	protein stability index
ALAGGKKSKKKWSKKSM [RPS25A]	3.63 ± 0.09
ALAGSEINWRHASFLCS [FAS1]	1.84 ± 0.049
ALAYAGTGNNSAVKRLL [RPN2]	3.26 ± 0.1
ALEEGLNEEAVIFLSSL [YJL039C/NUP192]	2.99 ± 0.065
ALETENMEIRNLRLKIL [GRR1]	2.7 ± 0.03
ALGIKVTNPKGRLALEA [RPL32]	3.36 ± 0.19
ALIENKKAKLVLIANDV [RPL8A]	2.46 ± 0.12
ALKRSYGIFGEGVEYSF [POP8]	2.86 ± 0.051
ALKTSIQHVGMINGRKL [FAS1]	3.19 ± 0.083
ALLQRLKTNGKQNNKDF [MTW1]	2.28 ± 0.091
ALMKEKDIRSTLASLIR [RPC82]	3.13 ± 0.12
ALQDKEITSVLSNLHES [SNF12]	3.13 ± 0.056
ALQQQQQQQQNQQQQNQ [SWI1]	2.78 ± 0.079
ALRPSDIFGANAASGSN [YOR098C/NUP1]	2.52 ± 0.059
ALSKFLTHPKYLNSRII [YML103C/NUP188]	1.58 ± 0.066
ALSMGKSSAFVIDIGAS [ARP7]	2.1 ± 0.059
ALVKPETQFKLSRPYKA [CDC53]	2.34 ± 0.063
AMDLAQMLIQGVWDVDN [BRR2]	2.12 ± 0.052
AMDRAHRIGQKKQVHVY [ISW2]	2.66 ± 0.074
AMEKYLLSKSKIGEEDY [MTW1]	2.73 ± 0.042
AMFAALQQKQQQRFQAL [SWI1]	1.62 ± 0.038
AMLAAQDVAAKCKEVGI [RPS14B]	1.96 ± 0.044
AMNDACYEKVLESINEG [BRR2]	3.37 ± 0.2
ANARDFGEWAGMTKSNI [BRR2]	2.37 ± 0.079
ANGTFMDFGVDPSMDPE [RPN10]	2.87 ± 0.085
ANIQLDFPELKPYKQVK [FAS2]	3.17 ± 0.077

Sequence	protein stability index
ANKEKKKAEKAARKAEK [RPL24A]	3.48 ± 0.055
ANKLSKSHSTVSSSSRH [ISW2]	2.93 ± 0.037
ANLVNKESDLLEETRTT [BRN1]	3.26 ± 0.077
ANNASQITPTVPHSHPS [SNF12]	2.9 ± 0.052
ANPVVATDPVAAKPDNL [SWP82]	3.1 ± 0.05
ANTPSIPTNPVDNENNK [SWI3]	3.08 ± 0.071
ANTPVLRKSELEYYAML [RPL30]	2.81 ± 0.076
ANVQRLKEYQSKIIVFP [RPL13A]	3 ± 0.067
APAYAWSHNGPFETFDH [CYT1]	2.78 ± 0.1
APDSEYLCFILSTRAGG [SNF2]	1.93 ± 0.041
APIADDNHSGDATANAT [DSN1]	3.38 ± 0.076
APIPIREDIDDPLAKVN [BRR2]	2.22 ± 0.059
APMYILDEVDAALDLSH [SMC2]	3 ± 0.073
APSIIFMDEIDSIGSTR [RPT6]	2.93 ± 0.054
AQAAQAAQAQAQAQAQA [GAL11]	2.82 ± 0.044
AQADKQDISSSTRVEFE [FAS2]	3.33 ± 0.055
AQNQGGQVSMSQFNGSG [PGD1]	3.23 ± 0.076
AQQLRNQQQQQQQQQQQ [GAL11]	3.04 ± 0.065
AQQQQLSNYPQQIQEQV [YGR119C/NUP57]	3.02 ± 0.044
AQTEIKLFNKWSFEEVE [RPS5]	3.22 ± 0.069
ARAVQDNGESAFRTLRL [RPL13A]	2.87 ± 0.096
ARFRSIHILKVAEIEKT [RPL20A]	1.08 ± 0.048
ARIHAQNYLKTYNEDIP [PRE9]	2.05 ± 0.061
ARILGTRALQISMNAPV [RPO26]	1.39 ± 0.13
ARLEPGTAIGAIGAQSI [RPO31]	2.39 ± 0.053
